Assay results from US20230279118A1 (published 2023).
Numbering of substitutions follows the chain as printed. Names may count otherwise. “And” between values parts separate entries of the source, which are not always exact repeats. Equal entries are not always repeated.

How the values were obtained:
[1] = target: T1, canine FcRn (canine); experiment: SPR, pH 5.5, FcRn 400 nM over captured Fc
T1 construct: Injected in solution as SPR analyte

[2] = target: T1, canine FcRn; experiment: SPR, pH 5.5, FcRn 200 nM over captured Fc
[3] = target: T1, canine FcRn; experiment: SPR, pH 5.5, FcRn 400 nM over captured Fc; average of the wild type replicates
[4] = target: T1, canine FcRn; experiment: SPR, pH 5.5, FcRn 200 nM over captured Fc; remark: listed apart in the source
[5] = target: T1, canine FcRn; experiment: SPR, pH 5.5, FcRn 100-800 nM over captured Fc
[6] = target: T1, canine FcRn; experiment: SPR, pH 5.5, FcRn 200 nM over captured Fc; remark: listed apart in the source
[7] = target: T1, canine FcRn; experiment: SPR, pH 5.5, FcRn 200 nM over captured Fc; remark: listed apart in the source
[8] = target: T1, canine FcRn; experiment: SPR, pH 5.5, FcRn 200 nM over captured Fc; remark: listed apart in the source
[9] = target: T1, canine FcRn; experiment: SPR, pH 5.5, FcRn 200 nM over captured Fc; remark: listed apart in the source
[10] = target: T1, canine FcRn; experiment: SPR, pH 5.5, FcRn 200 nM over captured Fc; remark: listed apart in the source
[11] = target: T1, canine FcRn; experiment: SPR, pH 5.5, FcRn 200 nM over captured Fc; remark: listed apart in the source

B1: canine IgG.B Fc variant E380A with SASA tag (Fc fusion)
chain: APEMLGGPSVFIFPPKPKDTLLIARTPEVTCVVVDLDPEDPEVQISWFVDGKQMQTAKTQPREEQFNGTYRVVSVLPIGHQDWLKGKQFTCKVNNKALPSPIERTISKARGQAHQPSVYVLPPSREELSKNTVSLTCLIKDFFPPDIDVAWQSNGQQEPESKYRTTPPQLDEDGSYFLYSKLSVDKSRWQRGDTFICAVMHEALHNHYTQESLSHSPGK
For B1, the Kd [1] was 618 nM and 747 nM, the koff [1] was 0.369 s⁻¹ and 0.18 s⁻¹ and the kon [1] was 598000 M⁻¹ s⁻¹ and 241000 M⁻¹ s⁻¹. The Kd [2] was 1320 nM and 1570 nM, the koff [2] was 0.223 s⁻¹ and 0.239 s⁻¹ and the kon [2] was 168000 M⁻¹ s⁻¹ and 152000 M⁻¹ s⁻¹.

B2: wild-type canine IgG.B Fc (CH2 and CH3 domains) with upstream SASA tag (Fc fusion)
chain: B1 chain with A150E
With B2 the Kd [3] was 566 nM, the Kd [4] was 502 nM and 784 nM and the koff [4] was 0.169 s⁻¹ and 0.207 s⁻¹. For the same binder, the kon [4] was 336000 M⁻¹ s⁻¹ and 264000 M⁻¹ s⁻¹, the Kd [5] was 3150 nM and the koff [5] was 0.527 s⁻¹. The kon [5] was 168000 M⁻¹ s⁻¹, the Kd [6] was 1710 nM and 2660 nM and the koff [6] was 0.288 s⁻¹ and 0.326 s⁻¹. The kon [6] was 168000 M⁻¹ s⁻¹ and 123000 M⁻¹ s⁻¹, the Kd [7] was 884 nM and 862 nM and the koff [7] was 0.21 s⁻¹ and 0.218 s⁻¹. For the same binder, the kon [7] was 237000 M⁻¹ s⁻¹ and 253000 M⁻¹ s⁻¹, the Kd [8] was 955 nM and 1310 nM and the koff [8] was 0.181 s⁻¹ and 0.209 s⁻¹. For the same binder, the kon [8] was 190000 M⁻¹ s⁻¹ and 159000 M⁻¹ s⁻¹, the Kd [9] was 2050 nM and 2990 nM and the koff [9] was 0.31 s⁻¹ and 0.315 s⁻¹. For the same binder, the kon [9] was 151000 M⁻¹ s⁻¹ and 105000 M⁻¹ s⁻¹, the Kd [2] was 1560 nM and 754 nM and the koff [2] was 0.179 s⁻¹ and 0.182 s⁻¹. For the same binder, the kon [2] was 115000 M⁻¹ s⁻¹ and 242000 M⁻¹ s⁻¹, the Kd [10] was 639 nM and 692 nM and the koff [10] was 0.17 s⁻¹ and 0.171 s⁻¹. For the same binder, the kon [10] was 267000 M⁻¹ s⁻¹ and 247000 M⁻¹ s⁻¹, the Kd [11] was 8990 nM and 3110 nM and the koff [11] was 0.347 s⁻¹ and 0.354 s⁻¹. The kon [11] was 38700 M⁻¹ s⁻¹ and 114000 M⁻¹ s⁻¹.

B3: canine IgG.B Fc variant T250Q with SASA tag (Fc fusion)
chain: B1 chain with T20Q, A150E
With B3 the Kd [11] was 2590 nM and 2840 nM, the koff [11] was 0.258 s⁻¹ and 0.268 s⁻¹ and the kon [11] was 99600 M⁻¹ s⁻¹ and 94300 M⁻¹ s⁻¹.

B4: canine IgG.B Fc variant T250E with SASA tag (Fc fusion)
chain: B1 chain with T20E, A150E
With B4 the Kd [11] was 2480 nM and 1660 nM, the koff [11] was 0.284 s⁻¹ and 0.287 s⁻¹ and the kon [11] was 114000 M⁻¹ s⁻¹ and 172000 M⁻¹ s⁻¹.

B5: canine IgG.B Fc variant L252Y with SASA tag (Fc fusion)
chain: B1 chain with L22Y, A150E
For B5, the Kd [5] was 173 nM, the koff [5] was 0.0476 s⁻¹ and the kon [5] was 275000 M⁻¹ s⁻¹. The Kd [6] was 98.7 nM and 114 nM, the koff [6] was 0.0397 s⁻¹ and 0.041 s⁻¹ and the kon [6] was 402000 M⁻¹ s⁻¹ and 358000 M⁻¹ s⁻¹.

B6: canine IgG.B Fc variant L252M with SASA tag (Fc fusion)
chain: B1 chain with L22M, A150E
B6 was tested, and the Kd [6] was 869 nM and 774 nM, the koff [6] was 0.168 s⁻¹ and 0.169 s⁻¹ and the kon [6] was 193000 M⁻¹ s⁻¹ and 218000 M⁻¹ s⁻¹.

B7: canine IgG.B Fc variant A254T with SASA tag (Fc fusion)
chain: B1 chain with A24T, A150E
In the case of B7, the Kd [9] is reported as 2290 nM and 1340 nM, the koff [9] is reported as 0.375 s⁻¹ and 0.433 s⁻¹ and the kon [9] is reported as 163000 M⁻¹ s⁻¹ and 323000 M⁻¹ s⁻¹.

B8: canine IgG.B Fc variant G309P with SASA tag (Fc fusion)
chain: B1 chain with G79P, A150E
With B8 the Kd [7] was 635 nM and 434 nM and 637 nM and 718 nM, the koff [7] was 0.239 s⁻¹ and 0.242 s⁻¹ and 0.132 s⁻¹ and 0.145 s⁻¹ and the kon [7] was 377000 M⁻¹ s⁻¹ and 558000 M⁻¹ s⁻¹ and 207000 M⁻¹ s⁻¹ and 202000 M⁻¹ s⁻¹.

B9: canine IgG.B Fc variant Q311V with SASA tag (Fc fusion)
chain: B1 chain with Q81V, A150E
In the case of B9, the Kd [10] is reported as 372 nM and 439 nM, the koff [10] is reported as 0.566 s⁻¹ and 0.696 s⁻¹ and the kon [10] is reported as 1.52e+06 M⁻¹ s⁻¹ and 1.59e+06 M⁻¹ s⁻¹.

B10: canine IgG.B Fc variant D378V with SASA tag (Fc fusion)
chain: B1 chain with D148V, A150E
With B10 the Kd [4] was 693 nM and 873 nM, the koff [4] was 0.159 s⁻¹ and 0.16 s⁻¹ and the kon [4] was 229000 M⁻¹ s⁻¹ and 184000 M⁻¹ s⁻¹.

B11: canine IgG.B Fc variant N434R with SASA tag (Fc fusion)
chain: B1 chain with A150E, N206R
Binder B11 has a Kd [5] of 182 nM, a koff [5] of 0.0801 s⁻¹ and a kon [5] of 440000 M⁻¹ s⁻¹. For the same binder, the Kd [8] was 107 nM and 159 nM, the koff [8] was 0.0524 s⁻¹ and 0.0633 s⁻¹ and the kon [8] was 488000 M⁻¹ s⁻¹ and 399000 M⁻¹ s⁻¹.
